Test results published in patent publication US20160002357A1 (Pfizer, published 2016).
Residue numbers refer to the chain shown, from its start.

B1: LP-DART #1 (bispecific antibody)
chain 1: QAVVTQEPSLTVSPGGTVTLTCRSSTGAVTTSNYANWVQQKPGQAPRGLIGGTNKRAPWTPARFSGSLLGGKAALTITGAQAEDEADYYCALWYSNLWVFGGGTKLTVLGGGGSGGGGEVQLVQSGAEVKKPGASVKVSCKASGYTFTSYGISWVRQAPGQGLEWMGWISAYNGNTNYAQKLQGRVTMTTDTSTSTAYMELRSLRSDDTAVYYCATIDTASAFDIWGQGTMVTVSSGCPPCPAPEAAGAPSVFLFPPKPKDTLMISRTPEVTCVVVDVSHEDPEVKFNWYVDGVEVHNAKTKPREEQYNSTYRVVSVLTVLHQDWLNGKEYKCKVSNKALPAPIEKTISKAKGQPREPQVCTLPPSREEMTKNQVSLWCLVKGFYPSDIAVEWESNGQPENNYKTTPPVLDSDGSFFLYSKLTVDKSRWQQGNVFSCSVMHEALHNHYTQKSLSLSPG
chain 2: QSVLTQPPSVSAAPGQKVTISCSGSSSNIGNNYVSWYQQLPGTAPKLLIYDNNKRPSGIPDRFSGSKSGTSATLGITGLQTGDEADYYCGTWDSSLSAVVFGGGTKLTVLGGGSGGGGEVQLVESGGGLVQPGGSLRLSCAASGFTFNTYAMNWVRQAPGKGLEWVARIRSKYNNYATYYADSVKDRFTISRDDSKNSLYLQMNSLKTEDTAVYYCVRHGNFGNSYVSWFAYWGQGTLVTVSSGCPPCPAPEAAGAPSVFLFPPKPKDTLMISRTPEVTCVVVDVSHEDPEVKFNWYVDGVEVHNAKTKPREEQYNSTYRVVSVLTVLHQDWLNGKEYKCKVSNKALPAPIEKTISKAKGQPREPQVYTLPPCREEMTKNQVSLSCAVKGFYPSDIAVEWESNGQPENNYKTTPPVLDSDGSFFLVSKLTVDKSRWQQGNVFSCSVMHEALHNHYTQKSLSLSPG
notes: also called P-cadherin LP-DART construct #1 (P-CAD 35, CD3-2)
B2: LP-DART #6 (bispecific antibody)
chain 1: QAVVTQEPSLTVSPGGTVTLTCRSSTGAVTTSNYANWVQQKPGQAPRGLIGGTNKRAPWTPARFSGSLLGGKAALTITGAQAEDEADYYCALWYSNLWVFGGGTKLTVLGGGGSGGGGEVQLVQSGAEVKKPGASVKVSCKASGYTFTSYGISWVRQAPGQGLEWMGWISAYNGNTNYAQKLQGRVTMTTDTSTSTAYMELRSLRSDDTAVYYCATIDTASAFDIWGQGTMVTVSSGGTGGCPPCPAPEAAGAPSVFLFPPKPKDTLMISRTPEVTCVVVDVSHEDPEVKFNWYVDGVEVHNAKTKPREEQYNSTYRVVSVLTVLHQDWLNGKEYKCKVSNKALPAPIEKTISKAKGQPREPQVYTLPPCREEMTKNQVSLSCAVKGFYPSDIAVEWESNGQPENNYKTTPPVLDSDGSFFLVSKLTVDKSRWQQGNVFSCSVMHEALHNHYTQKSLSLSPG
chain 2: QSVLTQPPSVSAAPGQKVTISCSGSSSNIGNNYVSWYQQLPGTAPKLLIYDNNKRPSGIPDRFSGSKSGTSATLGITGLQTGDEADYYCGTWDSSLSAVVFGGGTKLTVLGGGSGGGGEVQLVESGGGLVQPGGSLRLSCAASGFTFNTYAMNWVRQAPGKGLEWVARIRSKYNNYATYYADSVKDRFTISRDDSKNSLYLQMNSLKTEDTAVYYCVRHGNFGNSYVSWFAYWGQGTLVTVSSGGTGGCPPCPAPEAAGAPSVFLFPPKPKDTLMISRTPEVTCVVVDVSHEDPEVKFNWYVDGVEVHNAKTKPREEQYNSTYRVVSVLTVLHQDWLNGKEYKCKVSNKALPAPIEKTISKAKGQPREPQVCTLPPSREEMTKNQVSLWCLVKGFYPSDIAVEWESNGQPENNYKTTPPVLDSDGSFFLYSKLTVDKSRWQQGNVFSCSVMHEALHNHYTQKSLSLSPG
notes: also called P-cadherin LP-DART construct #6 (P-CAD 35, CD3-2)
B3: LP-DART #2 (bispecific antibody)
chain 1: B2 chain 1 with Y365C, C370S, S382W, A384L, V423Y
chain 2: B2 chain 2 with C372Y, S377C, W389S, L391A, Y430V
notes: also called P-cadherin LP-DART construct #2 (P-CAD 35, CD3-2)
B4: LP-DART #8 (bispecific antibody)
chain 1: QAVVTQEPSLTVSPGGTVTLTCRSSTGAVTTSNYANWVQQKPGQAPRGLIGGTNKRAPWTPARFSGSLLGGKAALTITGAQAEDEADYYCALWYSNLWVFGGGTKLTVLGGGGSGGGGEVQLVQSGAEVKKPGASVKVSCKASGYTFTSYGISWVRQAPGQGLEWMGWISAYNGNTNYAQKLQGRVTMTTDTSTSTAYMELRSLRSDDTAVYYCATIDTASAFDIWGQGTMVTVSSGGTGGGEPKSSDKTHTCPPCPAPEAAGAPSVFLFPPKPKDTLMISRTPEVTCVVVDVSHEDPEVKFNWYVDGVEVHNAKTKPREEQYNSTYRVVSVLTVLHQDWLNGKEYKCKVSNKALPAPIEKTISKAKGQPREPQVYTLPPCREEMTKNQVSLSCAVKGFYPSDIAVEWESNGQPENNYKTTPPVLDSDGSFFLVSKLTVDKSRWQQGNVFSCSVMHEALHNHYTQKSLSLSPG
chain 2: QSVLTQPPSVSAAPGQKVTISCSGSSSNIGNNYVSWYQQLPGTAPKLLIYDNNKRPSGIPDRFSGSKSGTSATLGITGLQTGDEADYYCGTWDSSLSAVVFGGGTKLTVLGGGSGGGGEVQLVESGGGLVQPGGSLRLSCAASGFTFNTYAMNWVRQAPGKGLEWVARIRSKYNNYATYYADSVKDRFTISRDDSKNSLYLQMNSLKTEDTAVYYCVRHGNFGNSYVSWFAYWGQGTLVTVSSGGTGGGEPKSSDKTHTCPPCPAPEAAGAPSVFLFPPKPKDTLMISRTPEVTCVVVDVSHEDPEVKFNWYVDGVEVHNAKTKPREEQYNSTYRVVSVLTVLHQDWLNGKEYKCKVSNKALPAPIEKTISKAKGQPREPQVCTLPPSREEMTKNQVSLWCLVKGFYPSDIAVEWESNGQPENNYKTTPPVLDSDGSFFLYSKLTVDKSRWQQGNVFSCSVMHEALHNHYTQKSLSLSPG
notes: also called P-cadherin LP-DART construct #8 (P-CAD 35, CD3-2)
B5: LP-DART #7 (bispecific antibody)
chain 1: QAVVTQEPSLTVSPGGTVTLTCRSSTGAVTTSNYANWVQQKPGQAPRGLIGGTNKRAPWTPARFSGSLLGGKAALTITGAQAEDEADYYCALWYSNLWVFGGGTKLTVLGGGGSGGGGEVQLVQSGAEVKKPGASVKVSCKASGYTFTSYGISWVRQAPGQGLEWMGWISAYNGNTNYAQKLQGRVTMTTDTSTSTAYMELRSLRSDDTAVYYCATIDTASAFDIWGQGTMVTVSSGEPKSSDKTHTCPPCPAPEAAGAPSVFLFPPKPKDTLMISRTPEVTCVVVDVSHEDPEVKFNWYVDGVEVHNAKTKPREEQYNSTYRVVSVLTVLHQDWLNGKEYKCKVSNKALPAPIEKTISKAKGQPREPQVYTLPPCREEMTKNQVSLSCAVKGFYPSDIAVEWESNGQPENNYKTTPPVLDSDGSFFLVSKLTVDKSRWQQGNVFSCSVMHEALHNHYTQKSLSLSPG
chain 2: QSVLTQPPSVSAAPGQKVTISCSGSSSNIGNNYVSWYQQLPGTAPKLLIYDNNKRPSGIPDRFSGSKSGTSATLGITGLQTGDEADYYCGTWDSSLSAVVFGGGTKLTVLGGGSGGGGEVQLVESGGGLVQPGGSLRLSCAASGFTFNTYAMNWVRQAPGKGLEWVARIRSKYNNYATYYADSVKDRFTISRDDSKNSLYLQMNSLKTEDTAVYYCVRHGNFGNSYVSWFAYWGQGTLVTVSSGEPKSSDKTHTCPPCPAPEAAGAPSVFLFPPKPKDTLMISRTPEVTCVVVDVSHEDPEVKFNWYVDGVEVHNAKTKPREEQYNSTYRVVSVLTVLHQDWLNGKEYKCKVSNKALPAPIEKTISKAKGQPREPQVCTLPPSREEMTKNQVSLWCLVKGFYPSDIAVEWESNGQPENNYKTTPPVLDSDGSFFLYSKLTVDKSRWQQGNVFSCSVMHEALHNHYTQKSLSLSPG
notes: also called P-cadherin LP-DART construct #7 (P-CAD 35, CD3-2)
B6: LP-DART #3 (bispecific antibody)
chain 1: B5 chain 1 with Y371C, C376S, S388W, A390L, V429Y
chain 2: B5 chain 2 with C378Y, S383C, W395S, L397A, Y436V
notes: also called P-cadherin LP-DART construct #3 (P-CAD 35, CD3-2)

Key:
[1] = target: human P-cadherin expressed on the cell surface (human, UniProt P22223 108-829); assay: cell-based or functional assay
[2] = target: T1, cynomolgus monkey P-cadherin ECD (cynomolgus monkey); assay: SPR
T1 construct: extracellular domain; also called cyno P-cadherin ECD; Cyno P-cadherin

Sequence of human P-cadherin expressed on the cell surface (P22223 108-829): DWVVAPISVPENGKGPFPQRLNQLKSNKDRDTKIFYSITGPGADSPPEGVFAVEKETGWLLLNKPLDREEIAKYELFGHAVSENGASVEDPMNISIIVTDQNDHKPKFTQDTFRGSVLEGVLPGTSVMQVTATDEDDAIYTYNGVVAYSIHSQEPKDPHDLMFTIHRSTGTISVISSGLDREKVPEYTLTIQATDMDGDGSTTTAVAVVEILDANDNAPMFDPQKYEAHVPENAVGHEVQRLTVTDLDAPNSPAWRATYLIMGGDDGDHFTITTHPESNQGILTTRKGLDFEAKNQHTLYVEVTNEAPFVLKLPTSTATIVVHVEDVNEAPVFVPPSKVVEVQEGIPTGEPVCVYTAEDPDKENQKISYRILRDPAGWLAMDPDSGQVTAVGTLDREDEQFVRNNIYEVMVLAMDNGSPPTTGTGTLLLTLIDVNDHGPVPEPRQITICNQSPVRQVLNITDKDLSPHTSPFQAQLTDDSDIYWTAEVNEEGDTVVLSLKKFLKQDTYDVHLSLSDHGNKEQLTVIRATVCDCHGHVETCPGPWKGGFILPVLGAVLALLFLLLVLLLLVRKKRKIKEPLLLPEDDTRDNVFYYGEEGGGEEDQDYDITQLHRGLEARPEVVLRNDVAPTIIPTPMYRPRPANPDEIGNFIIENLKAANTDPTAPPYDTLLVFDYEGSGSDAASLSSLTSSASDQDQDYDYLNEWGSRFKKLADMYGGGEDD

| Binder | T cell Cytotoxicity [1] [nM] | Kd [2] [nM] |
| --- | --- | --- |
| B1 | 0.79 | 108 |
| B2 | 1.29 | 86.6 |
| B3 | 0.92 | 73.5 |
| B4 | 2.27 | 104 |
| B5 | 2.85 | 96.6 |
| B6 | 1.6 | 85.7 |
